Assay results: patent US20180360932A1 (OPKO BIOLOGICS, published 2018)

Target: T1, MOD-5014 (FVIIa-CTP3, activated Factor VII-CTP-CTP-CTP) (human, UniProt P08709 61-212, O-glycosylated CTPs, positions not given; gamma-carboxylated (Gla) residues, positions not stated)
T1 construct: also called CTP-modified factor VIIa
T1 sequence (light): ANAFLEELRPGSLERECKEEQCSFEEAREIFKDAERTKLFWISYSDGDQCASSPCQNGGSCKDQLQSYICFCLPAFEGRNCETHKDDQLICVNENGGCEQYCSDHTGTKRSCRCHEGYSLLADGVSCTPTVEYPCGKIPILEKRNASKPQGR
T1 sequence (heavy): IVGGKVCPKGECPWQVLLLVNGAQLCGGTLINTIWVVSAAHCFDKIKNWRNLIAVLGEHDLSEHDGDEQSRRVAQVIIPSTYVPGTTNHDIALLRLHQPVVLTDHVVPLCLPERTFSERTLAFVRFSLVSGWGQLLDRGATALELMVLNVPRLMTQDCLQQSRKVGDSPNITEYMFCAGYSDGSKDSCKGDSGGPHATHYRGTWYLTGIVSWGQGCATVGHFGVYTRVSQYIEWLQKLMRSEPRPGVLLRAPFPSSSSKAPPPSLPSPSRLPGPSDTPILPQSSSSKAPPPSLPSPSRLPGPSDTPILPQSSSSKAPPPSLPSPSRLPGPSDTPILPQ
Experiment: TF binding read out by the rate of FX activation (FVIIa 0-2 nM, TF 10 pM, FX 135 nM, Pefachrome FXa), fitted with a Hill equation
Source text: Cleavage of synthetic substrate is converted to FXa concentration by a standard curve.

Kd: 3 pM
B1: Tissue factor (TF) (receptor, UniProt P13726 33-295, looked up)
chain: SGTTNTVAAYNLTWKSTNFKTILEWEPKPVNQVYTVQISTKSGDWKSKCFYTTDTECDLTDEIVKDVKQTYLARVFSYPAGNVESTGSAGEPLYENSPEFTPYLETNLGQPTIQSFEQVGTKVNVTVEDERTLVRRNNTFLSLRDVFGKDLIYTLYYWKSSSSGKKTAKTNTNEFLIDVDKGENYCFSVQAVIPSRTVNRKSTDSPVECMGQEKGEFREIFYIIGAVVFVVIILVIILAISLHKCRKAGVGQSWKENSPLNVS
